# From the RNAGym collection of RNA variant scans (doi:10.1073/pnas.2313332121)
# B1: TPR t1 (parent)
# chain: GACCAAUCUGCCCUCAGAGCUCGAGAACAUCUUCGGAUGCAGAGGAGGCAGGCUUCGGUGGCGCGAUAGCGCCAACGUCCUCAACCUCCAAUGCAUCCCACCACAUGAUGAUGCCUGAAGAGCCUUGGUUUUUUG
# Variants of: B1
# Assay: polymerase ribozyme fitness, log enrichment relative to wild type (log ratio); higher = more active; in vitro selection for triplet polymerase activity
# In short: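 In triplicate, a single round of in vitro selection was run on each mutant library, PCR-built and transcribed, covering one subunit of a heterodimeric triplet polymerase ribozyme. Frozen incubation at −7 °C followed annealing with a biotinylated primer, partner subunit and triplets, and extended constructs were then gel-excised, streptavidin-captured and taken through RT-PCR. Fitness is the logarithm of genotype enrichment over wild-type enrichment, from inverse-variance-weighted replicate averages of Illumina-sequenced inputs and outputs. […] only genotypes with ≥10 input reads and ≥1 read per output were kept.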
row,Variant,polymerase ribozyme fitness (log ratio)
1,C34A U131A,-1.94
2,C34U A90U,-4.66
3,C34A A50U A83G,-4.58
4,U33A A90C,-6.85
5,C34U C123G,-1.94
6,U32G G122A,-7.09
7,U33C G63A U78C C80A C99A C102A U116G,-6.04
8,C34A A50G G93A,-3.46
9,C34A C73A C85U U130A,-4.99
10,C34U G61C,-4.48
11,C34U G61U,-3.87
12,C34G C97U C123A,-6.44
13,C34A C64U C94U,-3.02
14,C34A U129C,-3.48
15,C34A U129G,-3.7
16,C34U G65C G117C A121C,-7.56
17,U33G G69A,-7.83
18,U33A C89A G117U,-5.96
19,C34G G36A C49A C86U C124A,-6.09
20,C34G C53G G61C U116C,-7.12
21,C34U C56U C115A,-4.02
22,C34A G61A C94A,-3.89
23,C34A A50U G61A G71C C123G,-6.98
24,G35A A74U C101U,-4.34

row,Variant,polymerase ribozyme fitness (log ratio)
1,U33G A118G,-5.59
2,C34A A43U G61A C88U A119G A121C,-4.91
3,C34A G44U G71A C114A,-6.89
4,U33G C82A,-5.59
5,C34A A41U G61C G120U,-6.86
6,C34A C89U U112A U133A,-1.77
7,C34U U112G,-3.89
8,C34U U112C,-2.16
9,C34G A46G A91C,-8.04
10,U33A C86G C114U,-4.98
11,U32G A68U C70U C80A C101U A111U U126G,-8.12
12,G35A C53G C104U G117U C124G U126G,-5.98
13,U33A C86U,-4.21
14,U33G A37U C49A C115U U131G,-6.12
15,U33A C49U C73U,-5.84
16,U33C A46G C88U A121U,-6.28
17,U33C C72U,-3.04
18,C34A G57A C72U G93A,-5.18
19,U33G G48U A105C U126G G127C,-6.34
20,U33C G61U,-3.04
21,U33C G61C,-5.84
22,C34A C72G,-3.33
23,U33A U81A C102G G110C C115G,-6.08
24,U33G U87G,-5.18

row,Variant,polymerase ribozyme fitness (log ratio)
1,C34A G48A,-3.24
2,C34A G47U G61A C86U,-4.04
3,C34U C72U,-4.07
4,G35A A66G,-6.38
5,U33G C34G G52U,-6.73
6,C34G A95G U109G G117C,-6.44
7,U32C U116A,-3.4
8,C34U C104U U112C,-2.1
9,C34A C76U G120C,-3.22
10,C34A A119G,-2.03
11,U33A G69A C79A A121G,-6.8
12,U32C U92A U96C U132A,-2.97
13,G35A C53G C62U G77C A84C,-4.08
14,C34A A83C,-3.65
15,C34G G120U,-4.75
16,C34U G63A A90G,-6.16
17,C34A G60C,-3.4
18,U32G G60A,-7.06
19,U32C U81A A90G U112A G113A,-1.38
20,U33G G61U,-4.97
21,U33C U133G,-5.56
22,C34G,-6.09
23,C34A,-2.52
24,C34U,-4.05

row,Variant,polymerase ribozyme fitness (log ratio)
1,U33C A43U,-5.07
2,C34U C62G,-6.83
3,U33A C89G A103U U112A G113U,-5.8
4,U32G,-6.71
5,C34A U59A,-2.58
6,C34A C73G U106A,-4.25
7,C34G C49U,-6.27
8,C34A G58C G63U,-4.79
9,U32C U106G U112G,-0.955
10,C34U G77A A103C G117U G127C U130A,-7.38
11,C34U A37G C64U U78C G113U U125G,-5.79
12,U33A C97A C123G,-4.21
13,C34U G113A C124A,-5.17
14,C34U C73A A111U C114G G135A,-6.34
15,U32G A50G G69U C88G A121C,-3.17
16,U32C U78C A100C,-2.28
17,C34A G120C,-1.97
18,C34G A91G C114A U132A,-6.48
19,C34G U87G U109A,-6.29
20,C34A C73G,-2.27
21,U32G U59C U112A G122U,-6.09
22,C34A C70G C72G C82G,-6.51
23,U33G G63C U112G U129A,-7.08
24,C34A G44C G60U A121G,-2.34

row,Variant,polymerase ribozyme fitness (log ratio)
1,U32G A43C C73U C97G G117A,-6.86
2,C34A C86A,-3.67
3,C34A G110A,-5.44
4,U33G C49G C53G G61U,-7.57
5,G35A,-3.65
6,U33A A84U C97U,-4.91
7,C34A G45A C86A,-5.49
8,C34A C73U C82U C99A,-4.69
9,C34A A103C,-4.26
10,C34G C53G C104A,-4.3
11,U33A U116C,-6.14
12,C34U A41U G63U U109A C115A,-5.59
13,G35A C56U C72U,-4.68
14,U33C U38G,-4.8
15,C34U C56A C82A A83U C97A A121U,-5.4
16,C34U C114G,-6.1
17,U33A G48U G69U C97G,-3.18
18,C34G G61A,-5.85
19,C34G C94U,-6.86
20,U33A G57U,-4.65
21,C34U U109C C114A,-6.96
22,U33C C124U,-3.97
23,C34G C40U G113A C124A,-7.14
24,U32G G69U,-4.52

row,Variant,polymerase ribozyme fitness (log ratio)
1,C34U C85U,-4.13
2,C34U U78G,-5.06
3,C34G G45C G69A A90U U92A G113A,-7.28
4,C34A A50U G71C C123G,-4.86
5,C34A G110U A118U,-6.14
6,C34U G63U G69A A84G,-6.86
7,U33C G120U,-4.63
8,C34U G65C C70U G117C A121C,-7.03
9,C34U G71U,-3.99
10,C34A G45C U59A C98G,-3.73
11,C34A A37U G48U C64G A68G C94G G120U,-7.45
12,C34A C70U G120C,-4.45
13,U32C U78A A84G G122A,-2
14,U33C G63U A111U A121C C124A,-6.83
15,G35A C53G C70A C104U G117U C124G U126G,-6.92
16,C34G G35U G60C G127C,-7.24
17,C34U C70U U112A G135U,-6.08
18,C34G G44A A90G C101U A121U,-5.28
19,C34A C94A,-4.19
20,U33C C79U,-4.51
21,C34A G47U G61A C86U U130A,-3.42
22,C34U U112C C124A,-1.63
23,C34G G57C C72A A100C,-4.64
24,C34U G60U,-3.24

row,Variant,polymerase ribozyme fitness (log ratio)
1,C34U G60A,-5.21
2,C34U G117A,-5.61
3,U32C G113U C123U,-3.78
4,C34A U87A,-3.34
5,U33G G120U,-5.27
6,C34U C73A C102U C123A,-3.14
7,C34A G61C,-4.99
8,C34A G61U,-3.25
9,C34U G120C,-3.96
10,C34U G120A,-3.93
11,C34U A46U C56G C72U G120C,-5.35
12,C34U G51U G61A C114U,-6.98
13,C34A A66U C101U,-5.31
14,U33G G39U A50U A84U A91C C114A,-5.3
15,U33A U112C G122C,-2.34
16,C34U C64U G93A A105C C114U,-5.2
17,U33A A37U U55C G63U A100C,-7.2
18,U33G A84C,-6.66
19,C34U A105G G120A,-5.77
20,C34A C56A U78C C104U,-2.07
21,C34A C72A C73A C97U,-3.88
22,C34U A68G C70U,-6.49
23,C34A A37C C72U A118G,-2.87
